One block for each binder: values may come before it.
Legend:
[1] = molecular target: T1, human mesothelin (MSLN) peptide on HLA-A*02:01 (human); assay: multimer staining
T1 peptide: SLLFLLFSL

[2] = molecular target: T2, human mesothelin (MSLN) peptide on HLA-A*02:01 (human); assay: multimer staining
T2 peptide: VLPLTVAEV

B1: MSLN20-28 clone 7 (TCR, V domains shown)
Valpha: ILNVEQSPQSLHVQEGDSTNFTCSFPSSNFYALHWYRWETAKSPEALFVMTLNGDEKKKGRISATLNTKEGYSYLYIKGSQPEDSATYLCAFYMDSNYQLIWGAGTKLIIKP
Vbeta: NAGVTQTPKFQVLKTGQSMTLQCAQDMNHNSMYWYRQDPGMGLRLIYYSASEGTTDKGEVPNGYNVSRLNKREFSLRLESAAPSQTSVYFCASSEWTAEQYFGPGTRLTVT
- binding result [1]: recognises

B2: MSLN530-538 clone 4 (TCR, V domains shown)
Valpha: AQTVTQSQPEMSVQEAETVTLSCTYDTSESDYYLFWYKQPPSRQMILVIRQEAYKQQNATENRFSVNFQKAAKSFSLKISDSQLGDAAMYFCAYLGTGTYKYIFGTGTRLKVLA
Vbeta: EAQVTQNPRYLITVTGKKLTVTCSQNMNHEYMSWYRQDPGLGLRQIYYSMNVEVTDKGDVPEGYKVSRKEKRNFPLILESPSPNQTSLYFCASSSGGLGYTFGSGTRLTVV
- binding result [2]: recognises

More lines, now with the values ahead:

- binding result [1]: recognises
B3: MSLN20-28 clone 8 (TCR, V domains shown)
Valpha: AQSVTQLDSQVPVFEEAPVELRCNYSSSVSVYLFWYVQYPNQGLQLLLKYLSGSTLVKGINGFEAEFNKSQTSFHLRKPSVHISDTAEYFCAVIPNNNARLMFGDGTQLVVKP
Vbeta: ETGVTQTPRHLVMGMTNKKSLKCEQHLGHNAMYWYKQSAKKPLELMFVYNFKEQTENNSVPSRFSPECPNSSHLFLHLHTLQPEDSALYLCASGQGTEAFFGQGTRLTVV

- binding result [2]: recognises
B4: MSLN530-538 clone 5 (TCR, V domains shown)
Valpha: TQLLEQSPQFLSIQEGENLTVYCNSSSVFSSLQWYRQEPGEGPVLLVTVVTGGEVKKLKRLTFQFGDARKDSSLHITAAQTGDTGLYLCAGGMESGGGADGLTFGKGTHLIIQP
Vbeta: DTGVSQNPRHKITKRGQNVTFRCDPISEHNRLYWYRQTLGQGPEFLTYFQNEAQLEKSRLLSDRFSAERPKGSFSTLEIQRTEQGDSAMYLCASTSTGGLKNTEAFFGQGTRLTVV

- binding result [1]: recognises
B5: MSLN20-28 clone 2 (TCR, V domains shown)
Valpha: DQQVKQNSPSLSVQEGRISILNCDYTNSMFDYFLWYKKYPAEGPTFLISISSIKDKNEDGRFTVFLNKSAKHLSLHIVPSQPGDSAVYFCAASGNTDKLIFGTGTRLQVFP
Vbeta: EPEVTQTPSHQVTQMGQEVILRCVPISNHLYFYWYRQILGQKVEFLVSFYNNEISEKSEIFDDQFSVERPDGSNFTLKIRSTKLEDSAMYFCASRPGWSYEQYFGPGTRLTVT

— US20240209058A1 (published 2024)
